The nature of this data set: soluble on expression in E. coli; label from the status in PepcDB or PDB records.
As for “MNKFVRLAAIAGLLLAGASYATDTTYRIDQLPQLRQEPEHATVSERVTSRFTRSHYRQFALDDQFSAKIFDRYLNMLDYSHNVLLASDVAQFADKKYSLDKELKSGQLDTPFALFNLAQKRRFERYQYALSVLDRPMVFTGNDTIDIDRAKAPWPSSEAELNALWDAKVKYDQLNLKLAGKTDKEIKETLTKRYQSAIKRLTQSNSEDVFQLIMNAFAREIDPHTNYLSPRNTEQFNTEMSLSLEGIGAVLQMDDDYTLINSMVPGGPAAKSKTIAVGDRVIGVGQAGKPMVDVIGWRLDDVVALIKGPKGSKVRLEILPAGKGTKPRTVTLTRERIRLEDRAVKMSVKTIGKERVGVLDIPGFYVGLTEDVKVQLQKLEKQNVSSIIIDLRSNGGGALTEAVSLSGLFIPSGPVVQVRDNNGKVREDSDTDGVVYYKGPLVVLVDRYSASASEIFAAAMQDYGRALIVGEPTFGKGTVQQYRSLNRIYDQMLRPEWPALGSLQYTIQKFYRVDGGSTQRKGVTPDIVMPTGVDPAETGENFEDNALPWDRINAASYTKTGDLKPWEPELLKNHAERIAANPEFQYIQKDIERYKALKDKRNIVSLNYAQREKENRDDDMTRLTRLNERFIREGKKPLKSLDDLPKDYQEPDPYLDETVNIALDLAHKEKAQPQIASRPVAAATAGATVK”, the “soluble on expression in E. coli” value is “not soluble”. To “MNKHQKPVLTGQRFKTRKRDEKEKFEPTVFRDTLVQGLNEAGDDLEAVAKFLDSTGSRLDYRRYADTLFDILVAGSMLAPGGTRIDDGDKTKMTNHCVFSANEDHETIRNYAQVFNKLIRRYKYLEKAFEDEMKKLLLFLKAFSEAEQTKLAMLSGILLGNGTLPATILTSLFTDSLVKEGIAASFAVKLFKAWMAEKDANSVTSSLRKANLDKRLLELFPVNRQSVDHFAKYFTDAGLKELSDFLRVQQSLGTRKELQKELQERLSQECPIKEVVLYVKEEMKRNDLPETAVIGLLWTCIMNAVEWNKKEELVAEQALKHLKQYAPLLAVFSSQGQSELVLLQKVQEYCYDNIHFMKAFQKIVVLFYKADVLSEEAILKWYKEAHAAKGKSVFLDQMKKFVEWLQNAEEESESEGEES” belongs “soluble”; to “MNKLQSYFIASVLYVMTPHAFAQGTVTIYLPGEQQTLSVGPVENVAQLVTQPQLRDRLWWPGALLTDSAVKAKALKDYQHVMAQLASWEAEADDDVAATIKSVRQQLLNLNITGRLPVKLDPDFVRVDENSNPPLVGNYTLYTVQRPVTITLLGAVSGAGQLPWQAGRSVTDYLQDHPRLAGADKNNVIVITPEGETVVAPVALWNKRHVEPPPGSQLWLGFSAHVLPEKYADLNDQIVSVLTQRVPD”, “soluble”. For “MNKPLMSKATAVWLIDNTTLSFRQIADFCGMHELEVQGIADGDVATGVKGFDPVANNQLDAIEIEKGQRDPLYKMKLKFNPAAVGEEKRRGPRYTPLSKRQDRPAAILWLVKFHPELSDGAIAKLVGTTKPTIQSIRERTHWNIGSIQPIDPVALGLCRQTELDAAVQQAARRKAAEGVVMSDDERRKLVSTEQSLSMPDEPRMPSGLEQFGRSEEEKRPADFSDADSFFNLPHGDDADEEEDEDPARAAALEHHHHHH”, the “soluble on expression in E. coli” value is “soluble”. To “MNKSNNEPFNQVLDKHLSRRNFVKSGLGLGAMTAFAGMGLTGCGSDSSSSPIPVDPVPPLPPTKSSAKLNFTSVKGARLNAVVVPEGYSAQVLAPWGTPLNAKAAPWKADGSNTADDQANSVGMHHDGMHFFPLNQAGDDGLLCINHEYIDEIALHPNGPTVDATTGLRTIVDEVRKEINAHGVSVVRIKLTNNQWEVVYNDKHNRRFTGATVMDIAGPLAYSPLLETRYSPDGSQARGTLNNCGNGYTPWGTYLTCEENWPEYFVNRSTLTRDQIRIGISKTSSRYGWDDLAGQDEERLDEFSRFDVTPKGVSARDDYRNEANGHGYIVEIDPYNPTSRAIKRTALGRFRHEGCTFGKLSEGQPVVFYSGHDARFEYLYKFVSAAPWNPQDANSSNRLEIGDKYMNEGTLYAAKFNENGVGAWLPLTLDSQTTDGKTLGNSFASLADIILNTAGAADLLGATPMDRPEWCAVDPFTGSVYLTLTNNSKRTEANPANPRLKNNFGHIIRWDEADKETEFTWDIFVFGSPSDGNAETNLSGLTDLNQFASPDGLAFDKRGILWVQTDNGAEEVAEETNDQMLAIVPSTLLDSANKQTSVTAKNQMELKRFFVGPNDCEVTGFAISPDYKTVFANIQHPGNWPYSNNAAEVTPTGVVLRPRAATVVIRKLDGKEVAVLEHHHHHH” belongs “soluble”; to “MNLDKPLLPGQVIGIIGGGHLAKMMALSAREMGFRVGVLDPQIDCPAAQVADWQLLGAYNDPEALEKLAKRAQVITYEFEHADVDALTAIQHLANIPQGTDILAITQDRLMEKSFLEDNNIVIAPYATIVSPTDIQEAIDGIGYPCILKNTRGEGRYVLHSTSDLAPSMNLLREGTCVLEAWIPYEKELSVLISGNGRGEFATFPVVETIKKERKLHETIAPARIDDEVSGELQRIAKVIAKAVGLVGTLSIEMFYTETGGIYVNKILPRPEDAGNFSIDACSFSQYDTHIRGLCNWPMPTIQLLSEAVTVNVLGNEAYETMDIINEHPDWHFHYYGHSEAKAQRAMGHITILTKEIDETLEEIKETKIWS”, “not soluble”; to “MNLDLTAQKVRLSWKDILWGYGNKYLGWADVAAYARKMTLSDHDERVFKLSLINKSNILELKPVLEDLASEMRDYSPKNWLYVLLSDVFHRKEEFEDPLGEVEKIYADFDYPEEIESFVRYMPPKDGYIPSAHTYEENIARLYSHWEHYLNNGGGQG”, “not soluble”.

For the sequence “MNLDTPLADGLERAKRFEQGLQQVVLGQERPIRLLTLAVFARGHALLEGGVGVGKTTLLRAVARGIGGDYERIEGTIDLMPNDLVYYTYLDEQGRPGVAPGPLLKHGEQLSIFFFNEINRARPQVHSLLLRVMAERSVSAFNREYRFPYLQVFADRNRVEKEETFELPAAARDRFMLEIAIEPPADPAHIDQILFDPRFYDPDRLVASAPADTLSFRELNGIAEALQGGIHVSARLRSYVQDLWRATRRPEDFGIALHEADSGDMIEAGSSPRGMSYLVRLARVQAWLSGRDRVEPEDVQYVFAPAVGHRIFLKPVYEYRRAELIPELVGKLIRRIAAPLEHHHHHH”, the “soluble on expression in E. coli” value is given as “not soluble”. For “MNLKQAFIDNNSIRLGLSADTWQEAVRLAVQPLIDSKAVTSAYYDAIIASTEKYGPYYVLMPGMAMPHAEAGLGVNRNAFALITLTKPVTFSDGKEVSVLLTLAATDPSIHTTVAIPQIVALFELDNAIERLVACQSPKEVLEMVEESKDSPYLEGMDLNA”, the “soluble on expression in E. coli” value is “soluble”. In the case of “MNLMDLANEHDALILAHNYQTPEIQDVAHHVGDSLALAKIAAESQASTIVLCGVYFMAETTKILSPEKRVIIPEPEAGCSLASSITAEQLRAWKAEHPEAAVVAYVNTTAEVKALSDVCCTSSNAVRVVESIDPDRDILFLPDQFLGAHVQRETGRKNIHVWLGECHVHADISPTHITEMAHNNPQADLYVHPECGCTTSALWLASQGDIPQARILSTGGMMEAARKTAASTVLVATEIGMLHQLRKANTATDFIPVNPYAACPFMQMITMEKLEKALVEGHHEVHVDPVLAQRARGAVEAMITL”, the “soluble on expression in E. coli” value was “not soluble”. To “MNLNIDWSKDFQEFQEILNSGIHPEWLYCAKANLVLEPAYTGEGKQFFSTQDIIYASKIIPFFLEHHHHHH” belongs “not soluble”; to “MNLNYKFERLYRVLFNEEMFYVAYQNIYSKTGNMTAGADGKTIDGMSIDRVEQLIGSLKNETYQPNPSKRTYIPKKNGKKRPLGIPSFDDKLVQEVVRMILEAIYEGSFEHTSHGFRPKRSCHTALIDIQKTFTAVKWFIEGDIKGFFDNINHDVLINILRERIADERFLRLIRKFLNAGYVEDWVFHRTYSGTPQGGIISPILANIYLDKFDKYIKEYINRFNKGVTRKGDARYKLYEQRRYRLAKKLKNEKDVKVRKQMTAEIKRLREERNNYPARNEMDSSIKRLKYVRYADDFLIGITGNLEDCKTVKEDIKNYLNEALKLELSDEKTLITNAQKPAKFLGYDVFIRRCNDLRKDKYGKTVRAFGHKPVLYLNFETMRKKLFDYKAARIAVVNGKEVWKSIVRTYMLNLDDLEIVSQFNAEIRGFYNYYSIANNSYVINSFYHIMSYSMYKVFANKYKSSVKKILLKYKKNKVFQVAYENSKGKTLYQSFYHDGFKRKKVAGNIYCDTIPRTVSITGGRNSLMERLKLQVCELCGATDKLEMHHVRKLKDLKGKSDWEKKMIARRRKTLAVCSKCHAKIDPDRRIRLNLEHHHHHH”, “not soluble”.

Source of the values: the DeepSol protein solubility set.
